The values that follow come from patent publication US20090317396A1 (AJOU UNIVERSITY INDUSTRY ACADEMIC COOPERATION FOUNDATION, published 2009).

For test [1], the target named is T1, death decoy receptor 1 (DcR1) (UniProt O14798 26-221, limits assumed).
T1 sequence (looked up): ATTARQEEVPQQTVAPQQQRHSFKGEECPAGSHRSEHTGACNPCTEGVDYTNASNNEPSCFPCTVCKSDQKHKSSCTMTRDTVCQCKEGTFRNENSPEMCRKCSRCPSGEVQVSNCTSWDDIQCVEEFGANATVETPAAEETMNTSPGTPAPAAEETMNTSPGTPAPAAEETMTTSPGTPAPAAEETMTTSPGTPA
The test is described as follows: SPR (Biacore 2000): DcR1 immobilised on a CM5 chip, HW6 injected. (In general: Surface plasmon resonance follows binding to a sensor surface in real time, without labels.)
Procedure: (§1) The binding affinity of the anti-DR5 scFv antibody to DR5, and the cross-reactivities of the antibody with other antigens, DcR1, DcR2, DR4, TNFR1, TNFR2 and CD95 were determined by Biacore 2000 SPR (surface plasmon resonance) biosensor (Pharmacia, Sweden), respectively.

Another test has as its target T2, death receptor 5 (DR5) (UniProt O14763 52-182, limits assumed).
T2 construct: Purified antigen immobilised on CM5 chip or coated on ELISA plates; also called TRAIL receptor 2; TRICK2
The test is described as follows: SPR (Biacore 2000), DR5 immobilised on CM5 chip, scFv injected, 25° C.

Test [2] addresses T3, CD95 (UniProt P25445 26-173).
T3 sequence (looked up): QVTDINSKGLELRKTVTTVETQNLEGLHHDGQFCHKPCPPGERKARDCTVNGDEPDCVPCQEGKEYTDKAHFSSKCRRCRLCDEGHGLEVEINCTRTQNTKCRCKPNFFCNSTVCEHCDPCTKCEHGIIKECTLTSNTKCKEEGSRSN
The test is described as follows: SPR (Biacore 2000): CD95 immobilised on a CM5 chip, HW6 injected.
Procedure: as §1

A further test deals with T4, DcR2 (UniProt Q9UBN6 56-211).
T4 construct: also called death decoy receptor 2
T4 sequence (looked up): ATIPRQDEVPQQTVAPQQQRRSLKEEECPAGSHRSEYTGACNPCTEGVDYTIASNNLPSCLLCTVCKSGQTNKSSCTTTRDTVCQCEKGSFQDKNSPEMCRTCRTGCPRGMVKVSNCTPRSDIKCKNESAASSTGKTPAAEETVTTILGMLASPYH
The test is described as follows: SPR (Biacore 2000), antigen immobilised on CM5 chip.

Another test concerns the target T5, TNFR2 (UniProt P20333 23-257).
T5 sequence (looked up): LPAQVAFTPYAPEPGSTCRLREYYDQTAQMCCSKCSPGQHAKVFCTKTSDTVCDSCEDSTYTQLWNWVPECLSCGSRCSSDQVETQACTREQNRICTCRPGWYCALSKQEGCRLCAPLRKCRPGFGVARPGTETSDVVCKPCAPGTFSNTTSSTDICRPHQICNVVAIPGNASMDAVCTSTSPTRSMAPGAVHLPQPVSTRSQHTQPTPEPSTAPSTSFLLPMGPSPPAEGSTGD
The test is described as above.

The target of test [3] is T6, TNFR1 (UniProt P19438 30-211, limits assumed).
T6 sequence (looked up): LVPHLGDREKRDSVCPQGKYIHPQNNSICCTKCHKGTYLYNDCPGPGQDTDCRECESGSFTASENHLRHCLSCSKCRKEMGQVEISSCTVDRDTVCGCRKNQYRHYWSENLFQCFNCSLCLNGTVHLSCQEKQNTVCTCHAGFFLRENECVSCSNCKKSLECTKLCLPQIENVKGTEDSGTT
The test is described as follows: SPR (Biacore 2000): TNFR1 immobilised on a CM5 chip, HW6 injected.
Procedure: as §1

In test [4] the target is T7, death receptor 4 (DR4) (UniProt O00220 24-239, limits assumed).
T7 construct: also called TRAIL receptor 1
Put plainly: SPR (Biacore 2000): DR4 immobilised on a CM5 chip, HW6 injected.
Procedure: as §1

For test [5], the target named is T3, CD95. Put plainly: SPR (Biacore 2000): CD95 immobilised on a CM5 chip, HW1 injected.
Procedure: as §1
Test [6] has as its target T7, death receptor 4 (DR4). Put plainly: SPR (Biacore 2000), antigen immobilised on CM5 chip.
Procedure: as §1
Test [7] has as its target T1, death decoy receptor 1 (DcR1). Put plainly: SPR (Biacore 2000): DcR1 immobilised on a CM5 chip, HW1 injected.
Procedure: as §1
For test [8], the target named is T6, TNFR1. Put plainly: SPR (Biacore 2000): TNFR1 immobilised on a CM5 chip, HW1 injected.
Procedure: as §1

T2 sequence (O14763 52-182 limits assumed): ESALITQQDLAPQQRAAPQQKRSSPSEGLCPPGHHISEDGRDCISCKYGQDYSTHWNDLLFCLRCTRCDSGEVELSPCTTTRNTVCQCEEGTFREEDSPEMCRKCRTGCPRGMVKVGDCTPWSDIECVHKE
T7 sequence (O00220 24-239 limits assumed): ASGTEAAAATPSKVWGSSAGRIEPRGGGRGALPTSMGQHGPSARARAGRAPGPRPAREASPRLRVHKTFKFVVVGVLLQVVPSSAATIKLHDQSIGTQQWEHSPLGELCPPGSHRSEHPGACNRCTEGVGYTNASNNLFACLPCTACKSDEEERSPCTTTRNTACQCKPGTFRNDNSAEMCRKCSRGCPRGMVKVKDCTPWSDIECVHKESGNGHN
Procedure for DcR2: as §1
Procedure for TNFR2: as §1
Procedure for death receptor 5 (DR5): as §1

B1: HW6 anti-DR5 scFv antibody (scFv)
scFv: QVQLQQSGPGRVQPSQTLSLTCAISGDSVSNNNAAWYWIRQSPSRGLEWLGRTYYRSKWYNDYAVSVKSRITISPDTSKNQFSLQLNSVTPEDTAVYYCARRGDGNSYFDYWGQGTLVTVSSGILRWGRFGWRGLGRGWLEIVLTQSPGTLSLSPGERATLSCRASQSVSSGYVSWYRQKPGQAPRLLIYGASTRATGIPDRFSGSGSGTDFTLTISRLEPEDFAVYYCHQYGSSPNTYGQGTKVGIK
notes: Human scFv expressed in E. coli periplasm, purified, monomeric; not shown: C-terminal Flag tag from vector pKJ1; C-terminal 6xHis tag from vector pKJ1
Broadly, the Kd is the concentration at which binding is half-saturated. A high value points to a looser complex. In general, koff refers to the rate constant with which the complex falls apart. For orientation: kon means the rate constant with which the complex forms. A lower kon goes with slower complex formation. Take B1: the binding result in test [1] was “no binding”; with CD95 [2], “no binding”; with DcR2, “no binding (tested: up to 10 µM)”; with TNFR2, “no binding (tested: up to 10 µM)”; with TNFR1 [3], “no binding”; in the test with death receptor 4 (DR4) [4], “no binding”. The molecule also gave a Kd in the test with death receptor 5 (DR5) of 54.5 nM. The molecule further showed a koff with death receptor 5 (DR5) of 0.00688 s⁻¹. The on-rate (kon) with death receptor 5 (DR5) came to 126000 M⁻¹ s⁻¹.

B2: HW1 anti-DR5 scFv antibody (scFv)
scFv: QVQLQQSGPGLVKPSQTLSLTCAISGDSVSSTTVAWDWIRQSPSRGLEWLGRTYYRSKWYNEYAVSVKSRITINVDTSKNQISLQLNSVTPEDTAVYYCAREPDAGRGAFDIWGQGTTVTSPLRWGRFGWRGLGRGWLRSPVTQSPGTLSLSPGERATLSCRASQSVSSSHLAWYQQKPGQAPRLLIYGASSRATGIPDRFSGSGSGTDFTLTISSLEPEDFAVYYCQQRSNWPPRAVFGQGTRLEIK
notes: Human scFv expressed in E. coli periplasm (PelB signal removed on export), purified, monomeric; not shown: C-terminal Flag tag from vector pKJ1; C-terminal 6xHis tag from vector pKJ1
Turning to B2, the binding result in the test with CD95 [5] is recorded as “no binding”; with death receptor 4 (DR4) [6], “no binding (tested: up to 10 µM)”; in the test with DcR2, “no binding (tested: up to 10 µM)”; with TNFR2 it was “no binding (tested: up to 10 µM)”; in test [7] it was “no binding”; with TNFR1 [8], “no binding”. In the test with death receptor 5 (DR5), this molecule gave a Kd of 202 nM. This molecule also displayed an off-rate (koff) with death receptor 5 (DR5) of 0.00471 s⁻¹. Moreover, in the test with death receptor 5 (DR5), the kon was determined as 23300 M⁻¹ s⁻¹.
